# Measured values: US20170088602A1 (Bristol-Myers Squibb, published 2017)
# What was measured:
# [1] = molecular target: T1, human Activin A (R&D Systems) (human, UniProt P08476 311-426); assay: cell-based or functional assay
# T1 sequence (looked up): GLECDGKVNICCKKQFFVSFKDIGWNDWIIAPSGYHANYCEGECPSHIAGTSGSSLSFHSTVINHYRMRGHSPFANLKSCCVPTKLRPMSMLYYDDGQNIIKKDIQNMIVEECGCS
# [2] = molecular target: T2, human myostatin (mature, recombinant; R&D Systems) (human, UniProt O14793 267-375); assay: cell-based or functional assay
# T2 sequence: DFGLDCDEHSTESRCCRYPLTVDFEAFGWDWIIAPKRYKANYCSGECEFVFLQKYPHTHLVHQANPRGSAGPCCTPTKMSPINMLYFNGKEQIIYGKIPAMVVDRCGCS
# [3] = molecular target: T3, human BMP-11 (GDF-11; R&D Systems) (human, UniProt O95390 299-407); assay: cell-based or functional assay
# T3 sequence (looked up): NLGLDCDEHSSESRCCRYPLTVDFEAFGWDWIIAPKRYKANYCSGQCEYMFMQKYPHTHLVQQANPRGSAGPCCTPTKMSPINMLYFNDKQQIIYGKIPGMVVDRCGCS
# [4] = molecular target: T2, human myostatin (mature, recombinant; …); assay: cell-based or functional assay; remark: listed apart in the source
# [5] = molecular target: T2, human myostatin (mature, recombinant; …); assay: competitive HTRF (1889E01/myostatin/ActRIIb-Fc sandwich)
# Excerpt: An HTRF assay was used to measure the binding affinities of anti-myostatin Adnectins to myostatin. […] The Eu-W 1024 labeled Streptavidin is used to bind biotinylated 1889E01. […] In the presence of a competitive Adnectin, the HTRF signal decreases.
Binder,ARE-luciferase IC50 [1],ARE-luciferase IC50 [2],ARE-luciferase IC50 [3],pSmad2 % inhibition at 10 nM [4],IC50 [5]
2987_B04 (designed binder) MGVSDVPRDLEVVAATPTSLLISWSLPYPGHLNYYRITYGETGGNSPVQEFTVPGRGVTATISGLKPGVDYTITVYAVTLTKSKIIHYMPISINYRTEIDKPSQHHHHHH,239 nM,0.12 nM,3.3 nM,–,–
2987_E03 (designed binder) MGVSDVPRDLEVVAATPTSLLISWSLPYPGHLNYYRITYGETGGNSPVQEFTVPGRGVTATISGLKPGVDYTITVYAVTLTRSKIIHYMPISINYRTEIDKPSQHHHHHH,224 nM,0.1 nM,2.3 nM,–,–
2987_B09 (designed binder) MGVSDVPRDLEVVAATPTSLLISWTLPHAGRAHYYRITYGETGGNSPVQEFTVPGRGVTATISGLKPGVDYTITVYAVTLTRSKIIHYMPISINYRTEIDKPSQHHHHHH,172 nM,0.01 nM,0.92 nM,–,–
3007_B08 (designed binder) MGVSDVPRDLEVVAATPTSLLISWSLPTPGLAHYYRITYGETGGNSPVQEFTVPGRGVTATISGLKPGVDYTITVYAVTVTHHGVIGYKPISINYRTEIDKPSQHHHHHH,423 nM,0.06 nM,0.23 nM,97%,0.14 nM
2987_F01 (designed binder) MGVSDVPRDLEVVAATPTSLLISWSLPYAGHAHYYRITYGETGGNSPVQEFTVPGRGVTATISGLKPGVDYTITVYAVTLTRSKIIHYMPISINYRTEIDKPSQHHHHHH,594 nM,0.05 nM,6.5 nM,–,–
2987_H02 (designed binder) MGVSDVPRDLEVVAATPTSLLISWSLPYAGHAHYYRITYGETGGNSPVQEFTVPGRGVTATISGLKPGVDYTITVYAVTLTKSKVIHYMPISINYRTEIDKPSQHHHHHH,794 nM,0.05 nM,11 nM,–,–
2987_F06 (designed binder) MGVSDVPRDLEVVAATPTSLLISWSLPHAGHAHYYRITYGETGGNSPVQEFTVPGRGVTATISGLKPGVDYTITVYAVTLTKSKVIHYMPISINYRTEIDKPSQHHHHHH,538 nM,0.08 nM,20 nM,–,–
2987_G09 (designed binder) MGVSDVPRDLEVVAATPTSLLISWTLPHAGRAHYYRITYGETGGNSPVQEFTVPGRGVTATISGLKPGVDYTITVYAVTVSSTKVIVYLPISINYRTEIDKPSQHHHHHH,> 2000 nM,0.05 nM,0.91 nM,–,–
2987_E08 (designed binder) MGVSDVPRDLEVVAATPTSLLISWTLPHAGRAHYYRITYGETGGNSPVQEFTVPGRGVTATISGLKPGVDYTITVYAVTVSSTKVIHYKPISINYRTEIDKPSQHHHHHH,352 nM,0.05 nM,2.8 nM,–,–
2987_D05 (designed binder) MGVSDVPRDLEVVAATPTSLLISWSLPHAGHAHYYRITYGETGGNSPVQEFTVPGRGVTATISGLKPGVDYTITVYAVTLTRSKIIHYMPISINYRTEIDKPSQHHHHHH,2000 nM,0.11 nM,2.4 nM,–,–
2987_A06 (designed binder) MGVSDVPRDLEVVAATPTSLLISWSLPHAGHAHYYRITYGETGGNSPVQEFTVPGRGVTATISGLKPGVDYTITVYAVTLTKSKIIHYMPISINYRTEIDKPSQHHHHHH,283 nM,0.1 nM,23 nM,–,–
2987_G04 (designed binder) MGVSDVPRDLEVVAATPTSLLISWSLPYPGHLNYYRITYGETGGNSPVQEFTVPGRGVTATISGLKPGVDYTITVYAVTLTKSKVIHYMPISINYRTEIDKPSQHHHHHH,171 nM,0.09 nM,3.3 nM,–,–
2987_C02 (designed binder) MGVSDVPRDLEVVAATPTSLLISWSLPYAGHAHYYRITYGETGGNSPVQEFTVPGRGVTATISGLKPGVDYTITVYAVTLTKSKIIHYMPISINYRTEIDKPSQHHHHHH,464 nM,0.06 nM,7.1 nM,–,–
3007_C10 (designed binder) MGVSDVPRDLEVVAATPTSLLISWSLPSSGVAHYYRITYGETGGNSPVQEFTVPGRGVTATISGLKPGVDYTITVYAVTVTNTGVIIYKPISINYRTEIDKPSQHHHHHH,> 2000 nM,0.03 nM,1 nM,76%,0.14 nM
3007_C09 (designed binder) MGVSDVPRDLEVVAATPTSLLISWSLPHRGVANYYRITYGETGGNSPVQEFTVPGRGVTATISGLKPGVDYTITVYAVTLTGANVIIYKPISINYRTEIDKPSQHHHHHH,417 nM,0.04 nM,0.89 nM,80%,0.14 nM
3008_A03 (designed binder) MGVSDVPRDLEVVAATPTSLLISWSLPHHGFGHYYRITYGETGGNSPVQEFTVPGRGVTATISGLKPGVDYTITVYAVTVTATGIIIYKPISINYRTEIDKPSQHHHHHH,> 2000 nM,0.11 nM,22.6 nM,87%,0.22 nM
"ATI-1340 [N-ethylmaleimide] (designed binder, N-ethylmaleimide on the Cys of the EGSGC tail, cysteine mutant of 2987_H07) MGVSDVPRDLEVVAATPTSLLISWTLPHAGRAHYYRITYGETGGNSPVQEFTVPGRGVTATISGLKPGVDYTITVYAVTVTTTKVIHYKPISINYRTEGSGCHHHHHH",324 nM,0.05 nM,4.87 nM,–,0.16 nM
